Source: patent publication US20260125446A1 (Eli Lilly, published 2026)
Read-outs that look alike come from different tables or passages of the source. Values belong to the binder of their own block, whether it stands above or below them.

Assays:
human RXFP1 receptor = molecular target: T1, human RXFP1 receptor (human, UniProt Q9HBX9 1-757); test: cell-based or functional assay
T1 sequence: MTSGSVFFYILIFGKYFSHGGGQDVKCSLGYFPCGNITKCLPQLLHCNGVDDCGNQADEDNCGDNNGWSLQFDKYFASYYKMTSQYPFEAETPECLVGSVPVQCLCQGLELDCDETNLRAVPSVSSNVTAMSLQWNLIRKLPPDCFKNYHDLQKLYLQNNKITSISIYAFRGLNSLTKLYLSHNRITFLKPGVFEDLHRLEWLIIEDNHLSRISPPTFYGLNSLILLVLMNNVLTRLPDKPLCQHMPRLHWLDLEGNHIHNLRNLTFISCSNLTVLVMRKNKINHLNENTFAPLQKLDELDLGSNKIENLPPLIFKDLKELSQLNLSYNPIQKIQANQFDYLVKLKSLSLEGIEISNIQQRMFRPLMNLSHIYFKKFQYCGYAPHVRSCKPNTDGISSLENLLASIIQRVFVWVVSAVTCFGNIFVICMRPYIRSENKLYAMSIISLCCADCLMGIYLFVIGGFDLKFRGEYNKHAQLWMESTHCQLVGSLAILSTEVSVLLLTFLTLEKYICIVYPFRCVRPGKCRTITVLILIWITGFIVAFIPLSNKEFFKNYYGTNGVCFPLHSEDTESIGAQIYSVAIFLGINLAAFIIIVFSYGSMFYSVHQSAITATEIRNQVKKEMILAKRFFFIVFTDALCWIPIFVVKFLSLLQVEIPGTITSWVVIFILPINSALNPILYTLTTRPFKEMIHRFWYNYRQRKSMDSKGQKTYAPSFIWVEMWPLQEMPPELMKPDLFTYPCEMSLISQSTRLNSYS

human RXFP2 receptor = human RXFP2 receptor (human, UniProt Q8WXD0 1-754); test: cell-based or functional assay
rabbit serum albumin = molecular target: T2, rabbit serum albumin (rabbit, UniProt P49065 25-608); test: SPR (Biacore 8K), albumin immobilized on CM5 chip, 25 C
T2 construct: Bought protein, immobilized on a CM5 chip by amine coupling; also called Rabbit SA
Method: (§1) The immobilization of the serum albumin to a Series S Sensor Chip CM5 surface is performed according to the manufacturer's instructions (Amine Coupling Kit BR-1000-50). Briefly, carboxyl groups on the sensor chip surfaces (flow cell 1 and 2) are activated by injecting 70 μL of a mixture containing 75 mg/mL EDC and 11.5 mg/mL NHS at 10 μL/min. Human, cynomolgus monkey, mouse, rat, pig, dog, cow and rabbit serum albumin are diluted in 10 mM sodium acetate pH 4.0 (BR-1003-49) at […] and then injected over the activated chip surfaces (flow cell 2, channel 1 to 8) at 10 μL/min for 180 sec (human, mouse, rat, pig and cow serum albumin are obtained from Sigma Aldrich (St. Louis, MO); cynomolgus monkey serum albumin is obtained from Hölzel Diagnostika (Cologne, Germany); dog serum albumin is obtained from Molecular Innovations (Novi, MI); and rabbit serum albumin is obtained from Fitzgerald Industries Intl. (Acton, MA). The various serum albumins are covalently immobilized through free amines onto a carboxymethyl dextran-coated sensor chip CM5 targeting a surface density of about 100 (62-145) RU. Excess reactive groups on the surfaces (flow cell 1 and 2) are deactivated by injecting 70 μL of 1 M ETA HCl—NaOH pH 8.5.
(§2) 150 μl of sample is individually injecting sequentially across the immobilized serum albumins on the chip's surface and dissociating for 600 sec at 50 μL/min flow rate at 25° C. The surface is regenerated by injecting 10 mM glycine-HCl pH 1.5 (BR-1003-54) at 50 μL/min for 100 sec. The resulting sensorgrams are analyzed using Biacore 8K Insight Evaluation Software (version 2.0.15.12933) 1:1 binding kinetics model fitting to calculate the binding kinetic parameter association rate (ka), dissociation rate (kd), and equilibrium dissociation constant (KD).

cow serum albumin [1] = molecular target: T3, cow serum albumin (cow, UniProt P02769 25-607); test: SPR (Biacore 8K), albumin immobilized on CM5 chip, 25 C, steady state
T3 construct: Bought protein, immobilized on a CM5 chip by amine coupling; also called Cow SA
Method: as §1
150 μl of sample is individually injecting sequentially across the immobilized serum albumins on the chip's surface and dissociating for 600 sec at 50 μL/min flow rate at 25° C. The surface is regenerated by injecting 10 mM glycine-HCl pH 1.5 (BR-1003-54) at 50 μL/min for 100 sec. The resulting sensorgrams are analyzed using Biacore 8K Insight Evaluation Software ([…]).

human serum albumin = molecular target: T4, human serum albumin (human, UniProt P02768 25-609); test: SPR (Biacore 8K), albumin immobilized on CM5 chip, 25 C, 1:1 kinetic fit
T4 construct: Bought protein, immobilized on a CM5 chip by amine coupling; also called Human SA
Method: as §1, §2

[2] = molecular target: T5, cynomolgus monkey serum albumin (cynomolgus monkey, UniProt A2V9Z4 25-608); test: as above
T5 construct: Bought protein, immobilized on a CM5 chip by amine coupling; also called Cyno SA
Method: as §1, §2

mouse serum albumin = molecular target: T6, mouse serum albumin (mouse, UniProt P07724 25-608); test: as above
T6 construct: Bought protein, immobilized on a CM5 chip by amine coupling; also called Mouse SA
Method: as §1, §2

rat serum albumin = molecular target: T7, rat serum albumin (rat, UniProt P02770 25-608); test: as above
T7 construct: Bought protein, immobilized on a CM5 chip by amine coupling; also called Rat SA
Method: as §1, §2

pig serum albumin = molecular target: T8, pig serum albumin (pig, UniProt P08835 25-607); test: as above
T8 construct: Bought protein, immobilized on a CM5 chip by amine coupling; also called Pig SA
Method: as §1, §2

dog serum albumin = molecular target: T9, dog serum albumin (dog, UniProt P49822 25-608); test: as above
T9 construct: Bought protein, immobilized on a CM5 chip by amine coupling; also called Dog SA
Method: as §1, §2

cow serum albumin [3] = molecular target: T3, cow serum albumin; test: SPR (Biacore 8K), albumin immobilized on CM5 chip, 25 C, steady state; remark: listed apart in the source

hRXFP1 EC50 nM GeoMean (cAMP CRE luciferase reporter assay, CHO cells expressing human RXFP1) (human RXFP1 receptor): 14 nM | hRXFP2 EC50 nM GeoMean (cAMP CRE luciferase reporter assay, CHO cells expressing human RXFP2) (human RXFP2 receptor): 32 nM | Kd (cow serum albumin [1]): 100 nM | Kd (human serum albumin): 0.37 nM | koff (human serum albumin): 0.0002 s⁻¹ | kon (human serum albumin): 550000 M⁻¹ s⁻¹ | Kd [2]: 1.5 nM | koff [2]: 0.00077 s⁻¹ | kon [2]: 510000 M⁻¹ s⁻¹ | Kd (mouse serum albumin): 9.7 nM | koff (mouse serum albumin): 0.0072 s⁻¹ | kon (mouse serum albumin): 740000 M⁻¹ s⁻¹ | Kd (rat serum albumin): 7.8 nM | koff (rat serum albumin): 0.0049 s⁻¹ | kon (rat serum albumin): 630000 M⁻¹ s⁻¹ | Kd (pig serum albumin): 20 nM | koff (pig serum albumin): 0.0096 s⁻¹ | kon (pig serum albumin): 490000 M⁻¹ s⁻¹ | Kd (dog serum albumin): 3.4 nM | koff (dog serum albumin): 0.0021 s⁻¹ | kon (dog serum albumin): 630000 M⁻¹ s⁻¹
B1: RLN Analog 10 (other)
chain: SWMEEVIKLCGRELVRAQIAICGMSTWSGGGSGGSGGGQLYSALANKCCHVGCTKRSLARFCPGPQPGPQPGPQPGPQPGPQPGPQPGPQPGPQEVQLLESGGGLVQPGGSLRLSCAASGRYIDETAVAWFRQAPGKGREFVAGIGGGVDITYYADSVKGRFTISRDNSKNTLYLQMNSLRPEDTAVYYCAARPGRPLITSKVADLYPYWGQGTLVTVSSPP
notes: Single-chain fusion: RLN2 B chain (desB1) - L2 - RLN2 A chain - (PGPQ)8 L1 - VHH (C-terminal)
binding result (rabbit serum albumin): no binding (tested: 1000 nM (highest concentration tested))

Kd (cow serum albumin [3]): 29 nM | Kd (human serum albumin): 0.14 nM | koff (human serum albumin): 0.00019 s⁻¹ | kon (human serum albumin): 1.4e+06 M⁻¹ s⁻¹ | Kd [2]: 0.49 nM | koff [2]: 0.0007 s⁻¹ | kon [2]: 1.4e+06 M⁻¹ s⁻¹ | Kd (mouse serum albumin): 2.6 nM | koff (mouse serum albumin): 0.0048 s⁻¹ | kon (mouse serum albumin): 1.8e+06 M⁻¹ s⁻¹ | Kd (rat serum albumin): 2 nM | koff (rat serum albumin): 0.0033 s⁻¹ | kon (rat serum albumin): 1.7e+06 M⁻¹ s⁻¹ | Kd (pig serum albumin): 5 nM | koff (pig serum albumin): 0.006 s⁻¹ | kon (pig serum albumin): 1.2e+06 M⁻¹ s⁻¹ | Kd (dog serum albumin): 0.92 nM | koff (dog serum albumin): 0.0017 s⁻¹ | kon (dog serum albumin): 1.9e+06 M⁻¹ s⁻¹
B2: RLN Analog 13 (other)
chain: EVQLLESGGGLVQPGGSLRLSCAASGRYIDETAVAWFRQAPGKGREFVAGIGGGVDITYYADSVKGRFTISRDNSKNTLYLQMNSLRPEDTAVYYCAARPGRPLITSKVADLYPYWGQGTLVTVSSGGGGQGGGGQGGGGQGGGGQGGGGQALANKCCHVGCTKRSLARFCGGGSGGSGGGSWMEEVIKLCGRELVRAQIAICGMSTWS
notes: Single-chain fusion: VHH - (G4Q)5 L1 - RLN2 A chain (desA1-4) - L2 - RLN2 B chain (desB1)
binding result (rabbit serum albumin): no binding (tested: 1000 nM (highest concentration tested))
